Experimental data taken from PMC5062977 (Nucleic Acids Research, 2016).

B1: His-tag RecA (natural protein, E. coli)
chain: AIDENKQKALAAALGQIEKQFGKGSIMRLGEDRSMDVETISTGSLSLDIALGAGGLPMGRIVEIYGPESSGKTTLTLQVIAAAQREGKTCAFIDAEHALDPIYARKLGVDIDNLLCSQPDTGEQALEICDALARSGAVDVIVVDSVAALTPKAEIEGEIGDSHMGLAARMMSQAMRKLAGNLKQSNTLLIFINQIRMKIGVMFGNPETTTGGNALKFYASVRLDIRRIGAVKEGENVVGSETRVKVVKNKIAAPFKQAEFQILYGEGINFYGELVDLGVKEKLIEKAGAWYSYKGEKIGQGKANATAWLKDNPETAKEIEKKVRELLLSNPNSTPDFSVDDSEGVAETNEDF
B2: His-tag AlkB (Escherichia coli alkylation repair protein-B) (enzyme, E. coli)
chain: MLDLFADAEPWQEPLAAGAVILRRFAFNAAEQLIRDINDVASQSPFRQMVTPGGYTMSVAMTNCGHLGWTTHRQGYLYSPIDPQTNKPWPAMPQSFHNLCQRAATAAGYPDFQPDACLINRYAPGAKLSLHQDKDEPDLRAPIVSVSLGLPAIFQFGGLKRNDPLKRLLLEHGDVVVWGGESRLFYHGIQPLKAGFHPLTIDCRYNLTFRQAGKKE

Legend:
SEC = biological target: the molecule itself; assay: SEC
GST-RecA = biological target: T1, GST-RecA (E. coli, UniProt P0A7G6 2-353); assay: pull-down
T1 sequence: B1 chain

His-tag RecA = biological target: B1; assay: SEC

Binder	binding result (SEC)	binding result (GST-RecA)	binding result (His-tag RecA)
B1	binds	–	–
B2	–	binds	binds
